Measured values: PMC4641155 (Molecular Imaging and Biology, 2015)
Several values for one entry are separate records, joined by “and”; a condition that tells them apart may be missing. Equal entries are not always repeated. Where two headings read alike, the source gives them in different places.

What was measured:
[1] = cited from earlier work
[2] = tested on: caspase-3/7; details: cited from earlier work
From the text: Molecular imaging of cell death has gained interest in oncology for monitoring tumor response to cancer therapy. Radiolabeled annexin-V was the first cell death-specific probe to be evaluated clinically. The exposure of membrane aminophospholipids such as PS and PE in the extracellular milieu provides surrogate markers for detecting cell death. PE presents one of the most abundant targets in the membrane bilayer, only preceded by phosphatidylcholine. […] Other ...

[3] = tested on: COLO205 tumors; assay: Ex vivo histology of tumors: cleaved caspase-3 and TUNEL; assay type: in vivo, nude mice; details: irinotecan-treated tumors; three whole sections, ×400; n = 6; mean ± SEM
[4] = tested on: COLO205 tumors
[5] = tested on: COLO205 cells; assay: Muse Annexin V & Dead Cell and Caspase 3/7 assays in irinotecan-treated cells; assay type: cell-based, human
[6] = In vivo tumor uptake by μSPECT-CT in COLO205 tumor-bearing mice; set-up: species or system nude mice; details: female, nude, mouse, bone marrow (lumbar vertebrae and sacrum), iv, 37 MBq, total radioactivity, lumbar vertebrae and sacrum, μSPECT 4 h p.i., 37 MBq i.v.
Procedure: Irinotecan was administered by intra-peritoneal (i.p.) injection (80 mg/kg) three times in 1 week every other day (n = 3).

[7] = Dynamic/static whole-body μSPECT-CT biodistribution in healthy mice; assay type: in vivo; details: female, CD1−/− nude, mouse, kidney, iv, 37 MBq, total radioactivity, 37 MBq i.v., 4 h p.i., mean ± SEM, n = 3 non-purified, n = 6 purified, read-out: renal activity (renal excretion)
[8] = Human residence time estimates scaled from mouse μSPECT time-activity curves; assay type: in vivo, human (extrapolated from mouse); details: scaled from mouse μSPECT TACs, n = 3 non-purified, n = 6 purified
From the text: (§1) Volumes of interest (VOIs) were manually drawn on the μSPECT-CT images using PMOD v3.3 (PMOD Technologies, Switzerland) to delineate the regions with distinct SPECT time-activity pattern: heart, liver, kidney, and urinary bladder, as well as whole-body. The average organ activity per volume was obtained from the co-registered μSPECT images and the non-decay corrected time activity curves (TACs) were extracted for each target organ. In order to relate the scanner units (counts/pixel) to radioactivity concentration (kilobecquerel per cubic centimeter), a scanner calibration factor was estimated by scanning a syringe with a known concentration of Tc-99m. TACs for each organ, as well as the TACs representing the activity in the remainder of the body, were fitted by a single exponential decaying function, which was then integrated to obtain the total number of disintegrations (residence time) within these regions. In order to predict human dosimetry using animal data, interspecies extrapolation is necessary. Thus, the residence times (R) were scaled to human values according to the following formula [21]: R/gorganmouse⋅kgTBweightmouse⋅gorgan/kgTBweighthuman=Rhuman
(§2) The human organ and body weight values from the standard adult male phantom taken into account are implemented in the internal dosimetry software (OLINDA/EXM v1.1) and are assumed to be constant across individuals. The body weight and organ masses for the individual mice were obtained post-mortem. For the bladder model, the fraction leaving the body via the urinary excretion system (f) and the biological half-life of the excretion (t1/2) were estimated by fitting a first-order linear system to the sum of activity in the bladder and the activity that had been excreted (calculated as total injected activity minus total body activity): y=f1−expln2/t1/2t

[9] = Projected human organ absorbed doses and effective dose (OLINDA/EXM); assay type: in vivo, human (extrapolated from mouse); details: OLINDA/EXM v1.1, adult male model, 2-h voiding, from mouse data
From the text: as §1, §2
Projected human absorbed doses to various organs and the effective doses (ED) were then computed using the aforementioned dosimetry software (weighting factors from International Commission on Radiological Protection 60), with the human residence times as input, using the standard adult male model and the dynamic voiding bladder model (2-h voiding interval).

[10] = Bladder model fit of urinary excretion; assay type: in vivo, CD1−/− nude female mice; details: first-order fit of bladder plus excreted activity
From the text: as §2

## O=C1C(=O)N(Cc2cn(CC[18F])nn2)c2ccc(S(=O)(=O)N3CCCC3COc3ccc(F)cc3F)cc21 (stereo not drawn) [[^18F]ICMT11]
[1]
  mean effective dose: 0.025 mSv/MBq
[2]
  binding affinity for caspase-3/7: nanomolar

## CCc1c2c(nc3ccc(OC(=O)N4CCC(N5CCCCC5)CC4)cc13)-c1cc3c(c(=O)n1C2)COC(=O)[C@]3(O)CC [irinotecan]
[3]
  number of CC3-positive cells: 9.5 ± 1.1
  number of TUNEL-positive cells: 10.5 ± 1.6
[4]; 80 mg/kg irinotecan, data not shown
  overall toxicity with respect to body weight loss: No overall toxicity
[4]; bioluminescence imaging after vs before treatment, irinotecan 80 mg/kg i.p.
  BLI signal change after treatment: 0.75 ± 0.28
[4]; day 5, irinotecan 80 mg/kg i.p. three times in 1 week, vs vehicle
  tumor growth inhibition: 34.4 ± 6.9%
[5]; irinotecan 0.43, 4.3, 43 μM, 40 h, Muse assays
  level of cell necrosis: did not result in an increased level of cell necrosis
[5]; irinotecan treatment 40 h, annexin-V binding and effector caspase activation
  apoptosis levels: increase in apoptosis levels

## CC(C)[C@@H]1NC(=O)[C@H](Cc2ccccc2)NC(=O)[C@@H]2NC(=O)[C@H](Cc3ccccc3)NC(=O)[C@@H]3CCCN3C(=O)CNC(=O)[C@H](Cc3ccccc3)NC(=O)[C@@H]3CNCCCC[C@@H](C(=O)O)NC(=O)[C@@H]4NC(=O)[C@H](CC(N)=O)NC(=O)CNC(=O)[C@H]([C@@H](O)C(=O)O)NC(=O)[C@H](CSC[C@@H](NC(=O)[C@H](CCC(N)=O)NC(=O)[C@H](CCCCNC(=O)c5ccc(NN)nc5)NC(=O)[C@@H](N)CS[C@H]4C)C(=O)N[C@@H](CS[C@H]2C)C(=O)N3)NC1=O [purified [^99mTc]duramycin, metal not drawn]
[6]; irinotecan-treated mice
  SUV at 4 h: 0.12 ± 0.02 SUV
[6]; vehicle-treated mice
  SUV at 4 h: 0.11 ± 0.01 SUV
[7]
  tissue uptake per volume at 4 h: 6.82 ± 0.41 %ID/mL

## CC(C)[C@@H]1NC(=O)[C@H](Cc2ccccc2)NC(=O)[C@@H]2NC(=O)[C@H](Cc3ccccc3)NC(=O)[C@@H]3CCCN3C(=O)CNC(=O)[C@H](Cc3ccccc3)NC(=O)[C@@H]3CNCCCC[C@@H](C(=O)O)NC(=O)[C@@H]4NC(=O)[C@H](CC(N)=O)NC(=O)CNC(=O)[C@H]([C@@H](O)C(=O)O)NC(=O)[C@H](CSC[C@@H](NC(=O)[C@H](CCC(N)=O)NC(=O)[C@H](CCCCNC(=O)c5ccc(NN)nc5)NC(=O)[C@@H](N)CS[C@H]4C)C(=O)N[C@@H](CS[C@H]2C)C(=O)N3)NC1=O [non-purified [^99mTc]duramycin] [metal not drawn]
[8]
  Mean human residence time, heart contents: 0.0244 h
  Mean human residence time, kidneys: 0.13 h
  Mean human residence time, liver: 1.02 h
  Mean human residence time, remaining body: 3.41 h
  Mean human residence time, urinary bladder contents: 0.369 h
[9]
  Mean human absorbed dose, total body: 2.52 × 10^−3 mGy/MBq
  Mean human organ absorbed dose, LLI wall: 3.01 × 10^−3 mGy/MBq
  Mean human organ absorbed dose, ULI wall: 3.10 × 10^−3 mGy/MBq
  Mean human organ absorbed dose, adrenals: 3.90 × 10^−3 mGy/MBq
  Mean human organ absorbed dose, brain: 1.54 × 10^−3 mGy/MBq
  Mean human organ absorbed dose, breasts: 1.51 × 10^−3 mGy/MBq
  Mean human organ absorbed dose, gallbladder wall: 5.38 × 10^−3 mGy/MBq
  Mean human organ absorbed dose, heart wall: 3.12 × 10^−3 mGy/MBq
  Mean human organ absorbed dose, kidneys: 8.45 × 10^−3 mGy/MBq
  Mean human organ absorbed dose, liver: 1.27 × 10^−2 ± 5.97 × 10^−3 mGy/MBq and 1.27 × 10 ^−2 mGy/MBq
  Mean human organ absorbed dose, lungs: 2.52 × 10^−3 mGy/MBq
  Mean human organ absorbed dose, muscle: 2.12 × 10^−3 mGy/MBq
  Mean human organ absorbed dose, osteogenic cells: 5.51 × 10^−3 mGy/MBq
  Mean human organ absorbed dose, ovaries: 3.15 × 10^−3 mGy/MBq
  Mean human organ absorbed dose, pancreas: 3.79 × 10^−3 mGy/MBq
  Mean human organ absorbed dose, red marrow: 2.16 × 10^−3 mGy/MBq
  Mean human organ absorbed dose, skin: 1.34 × 10^−3 mGy/MBq
  Mean human organ absorbed dose, small intestine: 3.01 × 10^−3 mGy/MBq
  Mean human organ absorbed dose, spleen: 2.48 × 10^−3 mGy/MBq
  Mean human organ absorbed dose, stomach wall: 2.63 × 10^−3 mGy/MBq
  Mean human organ absorbed dose, testes: 2.11 × 10^−3 mGy/MBq
  Mean human organ absorbed dose, thymus: 2.03 × 10^−3 mGy/MBq
  Mean human organ absorbed dose, thyroid: 1.87 × 10^−3 mGy/MBq
  Mean human organ absorbed dose, urinary bladder wall: 1.66 × 10^−2 ± 4.55 × 10^−3 mGy/MBq and 1.66 × 10 ^−2 mGy/MBq
  Mean human organ absorbed dose, uterus: 4.05 × 10^−3 mGy/MBq
[10]
  f, mean fraction leaving the body via the urinary excretion system: 0.519
  t 1/2, mean biological half-life of the excretion: 2.950 h

## [^99mTc]HYNIC-annexin V: radiolabeled human recombinant annexin V, apoptosis imaging agent
[1]; in vivo
  mean effective dose: 0.011 mSv/MBq
